Measured values: patent publication US20120277286A1, “COMPOSITIONS AND METHODS FOR THE TREATMENT OR PREVENTION OF MITOCHONDRIAL DISEASES” (The Government of the USA, as represented by the Secretary, …, priority 2009, published 2012)

Columns and labels:
[1] = test system: PINK1+/+ or PINK1−/− MEFs; test: YFP-Parkin recruitment to mitochondria in MEFs; assay type: cell-based, mouse; details: for Parkin recruited to mitochondria, % of cells: CCCP
From the text: HeLa YFP-Parkin, PINK1+/+ SV40 transformed MEFs cells, PINK1−/− SV40 transformed MEF, M17 neuroblastoma control shRNA, M17 neuroblastoma PINK1, and Mfn1/2−/− MEF cell lines have been described previously (Narendra (2008) J Cell Biol 183: 795-803). PINK1+/+ and PINK1−/− primary MEFs were isolated from embryos using a standard protocol (Gautier (2008) Proc Natl Acad Sci USA 105: 11364-11369). Parkin+/+ and Parkin−/− transformed MEFs were created by isolation of primary cells from embryos of B6.129S4-Park2tm1Shn/J mice (Jackson Labs), using a standard protocol (Gautier (2008) Proc Natl Acad Sci USA 105: 11364-11369), followed by retroviral transduction of SV40 (Applied Biological Materials, Inc.). YFP-Parkin, YFPParkin mutants, mCherry-Parkin, PINK1-YFP, PINK1 KD-YFP, PINK1 Δ1-110-YFP, and Opa3-PINK1 Δ1-110-YFP are in C1 or N1 Clontech vectors. PINK1WT-V5, PINK1 KD-V5, and PINK1 Δ1-156-V5 are in pDest40 vector (Invitrogen). PINK1 patient mutations are in pLenti-V5 vector (Invitrogen). PINK1-myc is in a pCMBTNT vector (Promega).
(§1) Confocal microscopy of fixed samples, scoring of Parkin recruitment and Parkininduced mitophagy, and live cell imaging were performed as described previously (Narendra (2008) J Cell Biol 183: 795-803). Experiments in Mfn1/2 null cells were performed as described previously with minor modifications.
HeLa YFP-Parkin, E18 Rat cortical neurons, PINK1^+/+ SV40 transformed MEFs cells, PINK1^−/− SV40 transformed MEF, M17 neuroblastoma control shRNA, M17 neuroblastoma PINK1, Mfn1/2^−/− MEF, and Parl^−/− MEF cell lines have been described previously (Narendra (2008) J Cell Biol 183: 795-803). PINK1^+/+ and PINK1^−/− primary MEFs were isolated from embryos using a standard protocol (Gautier (2008) Proc Natl Acad Sci USA 105: 11364-11369). Parkin^+/+ and Parkin^−/− transformed MEFs were created by isolation of primary cells from embryos of B6.129S4-Park2^tm1Shn/J mice (Jackson Labs), using a standard protocol (Gautier (2008) Proc Natl Acad Sci USA 105: 11364-11369), followed by retroviral transduction of SV40 (Applied Biological Materials, Inc.). YFP-Parkin, YFP-Parkin mutants, mCherry-Parkin, PINK1-YFP, PINK1 KD-YFP, PINK1 Δ1-110-YFP, and Opa3-PINK1 Δ1-110-YFP are in C1 or N1 Clontech vectors. PINK1WT-V5, PINK1 KD-V5, and PINK1 Δ1-156-V5 are in pDest40 vector (Invitrogen). PINK1 patient mutations are in the pLenti-V5 vector (Invitrogen). PINK1-myc is in a pCMBTNT vector (Promega). The PARL shRNA construct targeting (5′ […] 3′) is in the pSuper-GFP vector. To make FRB-PINK1 (111-581)-YFP and Tom20 (1-33)-FKBP, PCR fragments containing PINK1 (111-581)-YFP and Tom20 (1-33) were cloned into the BamHI site of the pC4-RHE vector and the EcoRI and XbaI sites of pC4M-F2E vectors, respectively (ARIAD Pharmaceuticals). The rapamycin analogue AP21967 was obtained from ARIAD Pharmaceuticals. The PARL shRNA construct targeting (5′ […] 3′) is in the pSuper-GFP vector (OligoEngine).
as §1, with “Parkin-induced” for “Parkininduced”, “imageing” for “imaging”, “modifications described in the supplemental methods (Narendra (2008) J Cell Biol 183: 795-803).” for “modifications.”

[2] = test system: COXICA65 cybrid cells; test: PCR-RFLP of wild-type and mutant mtDNA; assay type: cell-based, human
From the text: The forward primer, [NT], and the reversed primer, [NT], were used for COXICA65 cybrid.

[3] = test system: HeLa cells; test: Parkin in mitochondria-rich membrane fraction, immunoblot; assay type: cell-based; details: HeLa, CCCP 1 hr, Western blotting
From the text: (§2) For PINK1 experiments, cells were fractionated using the Mitochondria Isolation Kit (Pierce), according to manufacturer's specifications with slight modifications. To isolate integral membrane proteins, membrane fractions obtained as above were carbonate extracted with 0.1M Na2CO3 fresh cold buffer and membranes were pelleted, as described in the supplemental methods. For Parkin experiments, cells were fractionated as described previously, with minor modifications described in the supplemental methods (Narendra (2008) J Cell Biol 183: 795-803). The following primary antibodies were used: anti-Parkin (PRK8) monoclonal (Santa Cruz), anti-Tom20 polyclonal (Santa Cruz), anti-cytochrome c monoclonal (BD Biosciences), anti-PINK1 polyclonal (Novus Biologicals), anti-VDAC monoclonal (Calbiochem), anti-GAPDH polyclonal (Sigma-Aldrich), anti-Tubulin monoclonal (Sigma-Aldrich), anti-V5 monoclonal (Invitrogen), anti-GFP polyclonal (Invitrogen).
as §2, with “with slight modifications described in the supplemental methods. To isolate” for “with slight modifications. To isolate”, “minor modifications detailed in the” for “minor modifications described in the”, “supplemental methods (Narendra (2008) J Cell Biol 183: 795-803). The protease protection assay was performed as described previously (Chen (2005) J Biol Chem 280: 26185-26192). Cells were fixed and immunostained as described previously (Narendra (2008)” for “supplemental methods (Narendra (2008)”, “anti-GFP polyclonal (Invitrogen), anti-TIM23 monoclonal (BD Biosciences), and anti-Hsp60 monoclonal (Stressgen).” for “anti-GFP polyclonal (Invitrogen).”

In the case of N#CC(C#N)=NNc1cccc(Cl)c1 [CCCP, carbonyl cyanide m-chlorophenylhydrazone], the “YFP-Parkin recruited to mitochondria, % of cells” value ([1]; PINK1+/+ primary MEFs, 20 μM CCCP, 3 hours) is reported as 43.3±8.1% and the “Parkin recruited to mitochondria, % of cells” value ([1]; SV40 transformed PINK1+/+ MEFs) is reported as 60.7±7.7%.

B1: PINK1: exogenously expressed wild type PINK1 (V5 or myc tagged) (protein, UniProt Q9BXM7 78-581, looked up)
Serine/threonine-protein …: AARLQRQFVVRAWGCAGPCGRAVFLAFGLGLGLIEEKQAESRRAVSACQEIQAIFTQKSKPGPDPLDTRRLQGFRLEEYLIGQSIGKGCSAAVYEATMPTLPQNLEVTKSTGLLPGRGPGTSAPGEGQERAPGAPAFPLAIKMMWNISAGSSSEAILNTMSQELVPASRVALAGEYGAVTYRKSKRGPKQLAPHPNIIRVLRAFTSSVPLLPGALVDYPDVLPSRLHPEGLGHGRTLFLVMKNYPCTLRQYLCVNTPSPRLAAMMLLQLLEGVDHLVQQGIAHRDLKSDNILVELDPDGCPWLVIADFGCCLADESIGLQLPFSSWYVDRGGNGCLMAPEVSTARPGPRAVIDYSKADAWAVGAIAYEIFGLVNPFYGQGKAHLESRSYQEAQLPALPESVPPDVRQLVRALLQREASKRPSARVAANVLHLSLWGEHILALKNLKLDKMVGWLLQQSAATLLANRLTEKCCVETKMKMLFLANLECETLCQAALLLCSWRAAL
modifications: V5 or myc tag
With B1 the “reconstitution of YFP-Parkin recruitment” value ([1]; PINK1−/− primary MEFs co-transfected with construct, 20 μM CCCP, 3 hours) was “reconstituted”, the “YFP-Parkin recruited to mitochondria, % of cells” value ([1]; PINK1−/− primary MEFs expressing the PINK1 construct, 20 μM CCCP, 3 hours) was 78.6±3.9% and the “Parkin recruited to mitochondria, % of cells” value ([1]; SV40 transformed PINK1−/− MEFs with exogenous construct) was 72.8±7.7%.

B2: YFP-Parkin: YFP-tagged Parkin E3 ligase expressed from a transfected vector (protein, UniProt O60260 1-465, looked up)
E3 ubiquitin-protein ligase …: MIVFVRFNSSHGFPVEVDSDTSIFQLKEVVAKRQGVPADQLRVIFAGKELRNDWTVQNCDLDQQSIVHIVQRPWRKGQEMNATGGDDPRNAAGGCEREPQSLTRVDLSSSVLPGDSVGLAVILHTDSRKDSPPAGSPAGRSIYNSFYVYCKGPCQRVQPGKLRVQCSTCRQATLTLTQGPSCWDDVLIPNRMSGECQSPHCPGTSAEFFFKCGAHPTSDKETSVALHLIATNSRNITCITCTDVRSPVLVFQCNSRHVICLDCFHLYCVTRLNDRQFVHDPQLGYSLPCVAGCPNSLIKELHHFRILGEEQYNRYQQYGAEECVLQMGGVLCPRPGCGAGLLPEPDQRKVTCEGGNGLGCGFAFCRECKEAYHEGECSAVFEASGTTTQAYRVDERAAEQARWEAASKETIKKTTKPCPRCHVPVEKNGGCMHMKCPQPQCRLEWCWNCGCEWNRVCMGDHWFDV
modifications: YFP fusion
notes: YFP-tagged Parkin E3 ligase expressed from a transfected vector
B2 was tested, and the “wild-type and mutant mtDNA bands” value ([2]; COXICA65 cybrid, YFP-Parkin for 45 days) was “increase in wild-type DNA and a decrease in mutant DNA”, the “mutant mtDNA band at 63 bp” value ([2]; COXICA65 cybrid, YFP-Parkin for sixty days) was “only a very minor band of mutant mtDNA” and the “wild-type mtDNA percentage after reversion” value ([2]; cells enriched to 73.7% wild-type, cultured without FACS selection) was roughly 20%. For the same molecule, the “wild-type relative to mutant mtDNA” value ([2]; cells enriched to >90% wild-type, further 67 days without FACS selection) was “more than 50%”, the “percent of wild-type mtDNA (32P labeling)” value (“percent of wild-type mtDNA” for short) ([2]; first experiment, 180 days) was 40.3% and the “percent of wild-type mtDNA” value ([2]; first experiment, after 200 days) was 73.7%. For the same molecule, the “percent of wild-type mtDNA” value ([2]; second experiment, after 200 days) was 90.3% and the “translocation of YFP-Parkin variant to mitochondria-rich membrane fraction” value [3] was “increase”.
